# Assay results: the DeepSol protein solubility set
# Assay: soluble on expression in E. coli; label from the status in PepcDB or PDB records
row,Sequence,soluble on expression in E. coli
1,MSQVTADALTAQVVAEYLYEHPDFFQHHPHLVERLALPTQTGAVSLAHVQLARQRQRIDSLEEEITALMSLAANNDRTFHEFMDLQEQILKCSSLQAVLHAIEAKARELNLRAYVRLLQRHDEKYGLASEDWQRFATNHFNGKSAYLGRLRQADRQRLLGDRPAPEMGSYVVLPLQRQAPLGILAFASEDGGHFQPSMDTLFLRHLALVLAHLIETLPWQSHDEERRTHPAS,not soluble
2,QTPPRLVAIGGLSGSGKTTIAEALAAHVGAPPGARIVESDRIRKAMHGVPAETRLPDNAYRPDVSDRVYNEMTWRAGLILSEGGSVVADAVFDRPADRERIEKAARDRGIPFFGFWLEADPLVLWQRVSERKGGPSDATVDILSRQLQRKAG,not soluble
3,MGSDKIHHHHHHTSCIEDEKDYSQIIETRVANCETSKDFSVPVKEGYTTFVTSGEDTLAMANEPITIRIPKNATISTRAEGDGINISYTILDEGSETTYAKVWQAIMFEDTQNGDYDYNDLIIHVKNTASNHAYQHPTETWQTIEIQPIALGSTKTIKLGCILSDGSTHMISDDVRTDLFGGRQGFINTVNDNDPIRYKLASTNIKNYAMPKKEKTSAAWVAWFIEVDGKRMYAASSDIDYKSYDMVNKENMPYGLAVSNGNGTFSYPQEKNSLFETYPGFSDWINGKVSSIGSFQKELVYKYCSGGIIGEDGKSHKIWDYLDLN,not soluble
4,MWDTSKDYRLLVAEKSVELFIRTIEGAKFRGQWDKKRSIQLAKEMIPDIQALRYSYIDPEELVDTPQMKDLKEKAKGIIEALGGEDWHHKFLSQASREDREKVEEQVARIKFFLNTILNLDRRLKLGKINDPVIAVDIVVGEVMSVGKHPSADRLLVTNVNIGERAVTVVTNDLTVKEGNRVAVALLPPRNFFGIVSEGMFLGAGEGVLKNVKGEIGGLPKGIPLEALNETRNAVEAFLKG,soluble
5,MTKYRLHYFNARGYAEASRAMFHMAGVEFEDVRYEIDDWIKEENTLKNEMPFGQMPVLEVDGEKIPQSVAIARFVANQLGFAGQTPVEKAWADAFTDLYKDFLIDMKPWAMIAFGYPGAAGDRDELKKTSLDPAKEKYFKLLSKRLEKSKSGFLLDSGISFPDLFFFETTTSLIELEKGFLGTDFPVVNAYFKRIAEHPKLKPYLETRPYSSK,not soluble
6,MSLVLPSGAFTLKNVTVPAAIFGQRGDLISTDIGIVDGQISAPGGKVIEMAEAMVLPAFVDCHTHLDKGHILPRAQNPDGTFVGALTSVREDHLNWTSKDVRTRADFSIRCAYAHGTRAIRTHVDSMNGQYKRSWPVFAGLREKWANKVELQMTSLITCESYGMPEYAEIAATVAHFDGVLGMVSFPMPDLKKVLLSHFETAGNLGLALDFHTDETMDPSSETLRVIAECVMETGFCGRVLVGHCCSLSQQEENLAMDTLDLVAKAKIDVVSLPMCNLYLQDRHAGRTPRGRGVTLVHEMKARGINVSFASDNTRDPFYAYGDMDMLEVMRMATRIAHLDHSDFDWVKSFSQTPAEVCDFPDLSLAHGTTADLVIFNARNWNELYSRPQSDRIVLRNGIAIDRKLPSYSELDALLEAYKEGHHHHHH,soluble
7,MIHVILLAAGYSSRFGSNKLLHIVDGTPMYRHALETAEQFRQRYCCEPVRLIFVTAYDDIGKQLREKDGFCLFGAAKAGNTAGRDLVVMNPNSGLGISHSIALGVKAAGADRFQEDDSLMFMVCDQPWLTPGDLLNLAACFKRSGKSIGCMAYGEQTGNPVLFSAVYREELLGLRGDTGGKAIVRRHPKEVCLCPVSNPRALEDMDELQ,not soluble
8,MQFLQNIPPYLFFTGKGGVGKTSISCATAIRLAEQGKRVLLVSTDPASNVGQVFSQTIGNTIQAIASVPGLSALEIDPQAAAQQYRARIVDPIKGVLPDDVVSSINEQLSGACTTEIAAFDEFTGLLTDASLLTRFDHIIFDTAPTGHTIRLLQLPGAWSSFIDSNPEGASCLGPMAGLEKQREQYAYAVEALSDPKRTRLVLVARLQKSTLQEVARTHLELAAIGLKNQYLVINGVLPKTEAANDTLAAAIWEREQEALANLPADLAGLPTDTLFLQPVNMVGVSALSRLLSTQPVASPSSDEYLQQRPDIPSLSALVDDIARNEHGLIMLMGKGGVGKTTMAAAIAVRLADMGFDVHLTTSDPAAHLSMTLNGSLNNLQVSRIDPHEETERYRQHVLETKGKELDEAGKRLLEEDLRSPCTEEIAVFQAFSRVIREAGKRFVVMDTAPTGHTLLLLDATGAYHREIAKKMGEKGHFTTPMMLLQDPERTKVLLVTLPETTPVLEAANLQADLERAGIHPWGWIINNSLSIADTRSPLLRMRAQQELPQIESVKRQHASRVALVPVLASEPTGIDKLKQLAGHHHHHH,soluble
9,MGSDKIHHHHHHMIPLHTSMRGLRCFCVAAECLSFKETAKRLYLTPSAVSHQIKQLEESLNQSLFIRQTRAVTLTEVGARFYQAIEPVMQQLVNTVSEFNQSDRMLEVSISMPEFFASELFMPKLIGWSSKYPNINLKLETIKSRSDMIKHTDASIMLSGKQQTNADVYDLFPITYIPACNAQLHAELSSQGFKALTQVPLILHKARPYAWHQWAENVGFDAFQPKQIIQLDSMFSVARAAEQGLGIALIPLPISQAWFDNGTLLSLFPHPLFSHDRYYLIRHTNEQQRPEVQLLIDWILKSFHDESH,not soluble
10,MSLKIAILYREEREKEGEFLKEKISKEHEVIEFGEANAPGRVTADLIVVVGGDGTVLKAAKKAADGTPMVGFKAGRLGFLTSYTLDEIDRFLEDLRNWNFREETRWFIQIESELGNHLALNDVTLERDLSGKMVEIEVEVEHHSSMWFFADGVVISTPTGSTAYSLSIGGPIIFPECEVLEISPIAPQFFLTRSVVIPSNFKVVVESQRDINMLVDGVLTGKTKRIEVKKSRRYVRILRPPEYDYVTVIRDKLGYGRRIEEGGSHHHHHH,soluble
11,MSLDTTALPHTTFEGIPLDGKNKQDIQKIVQQKVEELNKKSLNYVFENNTQTYTWKDLGVEYKEKDIVANIFKEQQGNIIDRYNMRKKAIHGELKREYKLKPQLNSTAYEAFMEDKYNETLKNPVNAELNISGTTVNISESQNGEKIDKEQLAILTKQAIAANTQNIKLPIASIKPERSTEDIQNMGIKQVIAEYSTPMTGRNGSQSFNVNKSANTLSGAIVAPDETFSFNGRVGITDAAHGYKSAAVYLQGKVVQSAGGGVCQVSSTLYGAVLRADLGVVARSNHSMPVHYLPLGQDAAVADYGPDLKFKNNTGHYIYIQAFSDGNRITTRIFGTPTGKNVEVSSKVISNTGNKITAVTYKKVTKDGQVISNGQISKSVYKKEGHHHHHH,not soluble
12,MLKRRQPKYCSFMDSIDNSTTIIRKNLNRFIRELTDDGKLDFESIPYQNLQKEVANQDEEGCENVIEVLLDTTSRSGCPDRKLILQLFNSFFLQFPIFRENLLNDPSEFLELMFETNPIRNPLPGSKKHGNELKVEAITVIKSWEKEKCVKNDARMKCLVVTLKKTKFVDYENGAKKIEAERKRKKILEERKMKMIENSVNVYSSKYHEIKNDAETLSMELTTTMQMLVPSFTTADPEVPSTSTSTPSAISDSKSFEIFIPDLTPEISVSSENDAIVEAFLGAKLSLIHRVQTLRKLVKRLQLLKQPGEKLAQEIIDYRDGIKNLVLKADELRIINPRPPKNKRKKSDDDFIDVDISIDDILMVQYAEKLEVDVKSKDESEKITESPEKHKIEMKNEKPVKIKTVPFGLDLKYWGEERKDVEVPKNNADCHRFWRSADEGTVAGKAQQSIYTQRQYTFIGKAPDNRKVCLAKMKSGKLCPRKDYYTCPLHGKIVDRDDEGRPINEEDRLEENYRKEQNHLKEADKIRQMIEKEYESKTKRRKKHDVDTTASEDVRNRLQKKLLDPKTIQRVSADLDASRKNRLEKNFGQQFSHF,not soluble
13,MFRMPIVTMERVDSFSAAHRLHSEKLSDAENKETFGKCNNSNGHGHNYVWKVKLRGEVDPTSGMVYDLAKLKKEMSLVLDTVDHRNLDKDVEFFKTTVSTSENVAIYMFEKLKSVMSNPSVLYKVTIEETPKNIFTYKGS,soluble
14,MSLTVPTILVIDDDVQVCETIASLLARLRYACETAHSLEQGLAILETAPVDVVFLDVRLPDGNGIDALPRIRQAPSHPEVIILTGEGDPDDAELAIQGGVWDYLVKPTPIKQTTLTLARALQYRAEKLSKGGGGTVALDLDGVVGISPSMRQCFDLVANAATTEANVLVTGETGTGKELLARTIHRNSPRRNGPFVVVDCAALTESLVESTLFGHKRGAFTGAQQDRDGLVKLADGGTLFLDEVGEMPLAIQRAFLRILQERSFRPVGGTQEIRSDFRLISATNRDLDAMVERGEFRKDLLFRLNTVHVELPPLRTRPEDLKPLAIFHMNRLAEQYGVPAKGFATDFFQQLAQYDWPGNVREFFNVLERSFVISGLEGVLYAMHLPQDVRIKITRASLARSEGHHHHHH,soluble
15,RSLKNEELYHQSYDCVCVMFASIPDFKEFYTESDVNKEGLECLRLLNEIIADFDDLLSKPKFSGVEKIKTIGSTYMAATGLSAIPSQEHAQEPERQYMHIGTMVEFAYALVGKLDAINKHSFNDFKLRVGINHGPVIAGVIGAQKPQYDIWGNTVNVASRMDSTGVLDKIQVTEETSLILQTLGYTCTCRGIINVKGKGDLKTYFVNTEMSR,soluble
16,MGSDKIHHHHHHMASESNQVIQRLFQRFFRDELAGLSPADRAAFESEFEGRYGELLDRSSSATTTSFADLVGFGDGPIKPFDSLQMPLLRNDFDESIIPPQLQASAELYYIYQMDRMKLFQVVDVLRRLFQNGQIRIQRGPGARGLYILEKWRPIRYKRRDRLIAYRRVFNYGRAPVPAGAIVNRSFHFQLVAFMNAMSQYFQDLTIGQVIRGSSTINDRPFAALATVQRVGTDLRYHLDRSSYGNILALTRETGQYVQQIFELFDAPDIKKSFDANTKWDVIEAVANRHLGGATEMSERAKMADAGRRILQYIAENDFRTTITPAEFDADAKKMGAQADAWLAAYRLTREGRRFPGLDGDRVHWSYGLNRNTASRIAA,not soluble
17,MAFKPVSITGTRRQAGQALGKLARPLMATYLEQSTVWAALRPWRGHAYLEALAHEASQALPEIWDELEGLAEGLRMPLVDILLWNCRGDLLHKTSDGCTSIAWRGDEDARWIAHNEDGDPFLYGRCHMVDVRTDDAPGYISFYYPGSLPGHTFGANRAGLVQTINNVRIRQRHAGVPRMLLARAVLDCATLDDALAVLRDHPRAGGFHHTLGAAGEPRLYSVEASPAACSIGEVARGNGHANHLVHPGSEAIGQIVTDSSRSRQRHIENLMDHWQPPVDGARLVATLLDREGELPILRCGADDPDEENTLATALFEMRDGGLTLQVHDRRDQPALRVTVCPAALEHHHHHH,not soluble
18,HMSSGNASWFQAIKAKKLNTPPPKFEGSGVPDNENMKPSQQHGYWRRQARFKPGKGGRCPVPDAWYFYYTGTGPAADMNWGDTQDGIVWMAAKGADTKSRSNQGTRDPDKFDQYPLRFSDGGPDGNFRWDFIPL,soluble
19,MLEVREVEKSFKKKKVLKGGSLSVNKGEIVGLLGPNGAGKTTLFNSIIGFISVDKGKVLLDGEDVTHLPPFKRAQKGLAFLPQEHTLFEDLTVLENLLIFLEFFTDSKEEAITKAEALLEDFGLLELKDQKAYALSGGQKRRLEIARSLITTPKYVLLDEPFAGLDPIIVSEIREIVKNLKNNGIGVLITDHNVRETIKMVDRVYIISEGKVLAHGKPEEVVNNEAVRKTYLGVDFKL,soluble
20,ALAETVSDFRLPNGLEVVVIEDHRAPVVTHMVWYRVGAADEPPGHSGIAHFLEHLMFKGTDEMSAGEFSATVEAQGGDDNAFTSWDYTAYFQRVAADRLDLMMKMEADRMRDLQMTEEDVRTERQVVLEERSQRTDSDPGAVFSEQSRAAAYLNHPYGIPIIGWRHEIEQLGREDAFSFYRTYYAPNNAILVVAGDVDPAEVRRMAEEHYGALEPTP,not soluble
